In patent publication US20220098307A1 (WUHAN YZY BIOPHARMA, published 2022):

How the values were obtained:
[1] = biological target: T1, human CEA (human, UniProt P06731 35-685); test: flow cytometry, human tumor cells (CEA+)
T1 sequence: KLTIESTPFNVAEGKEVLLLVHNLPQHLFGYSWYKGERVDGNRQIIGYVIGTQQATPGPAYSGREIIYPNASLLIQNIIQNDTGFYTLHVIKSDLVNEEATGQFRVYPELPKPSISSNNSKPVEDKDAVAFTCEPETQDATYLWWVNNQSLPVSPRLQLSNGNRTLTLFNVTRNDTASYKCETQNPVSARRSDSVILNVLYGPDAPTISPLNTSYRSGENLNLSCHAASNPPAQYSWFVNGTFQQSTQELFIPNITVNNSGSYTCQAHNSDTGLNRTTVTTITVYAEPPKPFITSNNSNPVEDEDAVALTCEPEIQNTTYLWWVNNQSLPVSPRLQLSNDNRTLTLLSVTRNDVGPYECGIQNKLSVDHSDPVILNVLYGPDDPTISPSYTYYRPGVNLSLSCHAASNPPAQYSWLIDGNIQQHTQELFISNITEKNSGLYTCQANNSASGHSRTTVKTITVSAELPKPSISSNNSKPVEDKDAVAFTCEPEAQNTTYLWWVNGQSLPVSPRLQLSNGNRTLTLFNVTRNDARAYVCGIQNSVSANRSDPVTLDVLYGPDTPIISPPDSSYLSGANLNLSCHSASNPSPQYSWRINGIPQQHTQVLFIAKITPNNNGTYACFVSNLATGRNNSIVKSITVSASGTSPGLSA
From the text: (§1) 1) Cell preparation: T cells isolated from CD3-positive human whole blood were used for a CD3 end affinity detection of multifunctional antibody molecule; positive tumor cells of corresponding antigen were used for detecting affinity of tumor antigen; for example, CD38-positive MM. 1S cells (purchased from the Cell Resource Center of Shanghai Institutes for Biological Sciences, Chinese Academy of Sciences) or RPMI 8226 cells (purchased from the Cell Resource Center of Shanghai Institutes for Biological Sciences, Chinese Academy of Sciences) were used for CD38 antigen detection, and PD-L1 positive H358 cells (purchased from the Cell Resource Center of Shanghai Institutes for Biological Sciences, Chinese Academy of Sciences) were used for PD-L1 antigen detection, and so on. The cells were resuspended with 1% FBS-PBS, adjusted to a density of 4×10⁶/ml, and 50 μl of cells were taken from each well, and then plated at 2×10⁵ per well. Cell plating was operated on ice
(§2) 2) Addition of the antibody: according to the experimental design, the antibody was diluted gradually, and dilution of antibody was operated on ice. For example, the initial concentration of antibody for dilution was 3000 nM, and the antibody was diluted by 3 times with 11 concentration gradients. The diluted antibody was added to a cell well at 50 μl per well, mixed well, and shaked and incubated at 4° C. 1100 rpm/min for 2 h; after washing, the cells were resuspend in 1% FBS-PBS, and a diluted secondary antibody PE anti-human IgG FC (Biolegend, 409304) was added with a final concentration of 8 ug/ml and a volume of 50 μl/well. At the same time, a well only added with cells and secondary antibody was set as a control, the components were mixed well, and incubated under shaking at 1100 rpm/min at 4° C. for 1 h;
(§3) 5) Data analysis: the data was analyzed by a flow analysis software FlowJo 7.6 thereby obtaining an average fluorescence intensity of the specific antibody concentration, plotted by a Graphpad Prism 5 with the antibody concentration (nM) as an abscissa and the average fluorescence intensity as an ordinate; the EC50 value was calculated by the method of One site—Specific binding, and the EC50 value indicated the cell affinity of the antibody to the corresponding target antigen.

[2] = biological target: T2, Human CD3ε (human, UniProt P07766 23-126); test: flow cytometry, human T cells
T2 construct: CD3 on T cells isolated from human whole blood
From the text: as §1, §2, §3

Binder | EC50 [1] | EC50 [2]
CEA-M3-G2 (bispecific antibody, structure 3; CEA x CD3; CH2 G2CH2) chain 1: QVQLVQSGSELKKPGASVKVSCKASGYTFTVFGMNWVRQAPGQGLEWMGWINTKTGEATYVEEFKGRFVFSLDTSVSTAYLQISSLKADDTAVYYCARWDFYDYVEAMDYWGQGTTVTVSSASTKGPSVFPLAPSSKSTSGGTAALGCLVKDYFPEPVTVSWNSGALTSGVHTFPAVLQSSGLYSLSSVVTVPSSSLGTQTYICNVNHKPSNTKVDKKVEPKSCGGGGSGGGGSQVQLVESGGGVVQPGRSLRLSCAASGFTFSTYAMNWVRQAPGKGLEWVARIRSKYNNYATYYADSVKDRFTISRDDSKNTLYLQMNSLRAEDTAVYYCARHGNFGNSYVSWFAYWGQGTLVTVSSASVAAPSVFIFPPSDEQLKSGTASVVCLLNNFYPREAKVQWKVDNALQSGNSQESVTEQDSKDSTYSLSSTLTLSKADYEKHKVYACEVTHQGLSSPVTKSFNRGECDKTHTCPPCPAPPVAGPSVFLFPPKPKDTLMISRTPEVTCVVVDVSHEDPEVQFNWYVDGVEVHNAKTKPREEQFNSTFRVVSVLTVVHQDWLNGKEYKCKVSNKGLPAPIEKTISKTKGQPREPQVYTLPPCRDELTKNQVSLWCLVKGFYPSDIAVEWESNGQPENNYKTTPPVLDSDGSFFLYSKLTVDKSRWQQGNVFSCSVMHEALHNHYTQKSLSLSPGK chain 2: QTVVTQEPSLTVSPGGTVTLTCRSSTGAVTTSNYANWVQQKPGQAPRGLIGGTNKRAPGVPARFSGSLLGGKAALTLSGVQPEDEAEYYCALWYSNLWVFGGGTKVEIKSSASTKGPSVFPLAPSSKSTSGGTAALGCLVKDYFPEPVTVSWNSGALTSGVHTFPAVLQSSGLYSLSSVVTVPSSSLGTQTYICNVNHKPSNTKVDKKVEPKSC heavy: QVQLVQSGSELKKPGASVKVSCKASGYTFTVFGMNWVRQAPGQGLEWMGWINTKTGEATYVEEFKGRFVFSLDTSVSTAYLQISSLKADDTAVYYCARWDFYDYVEAMDYWGQGTTVTVSSASTKGPSVFPLAPSSKSTSGGTAALGCLVKDYFPEPVTVSWNSGALTSGVHTFPAVLQSSGLYSLSSVVTVPSSSLGTQTYICNVNHKPSNTKVDKKVEPKSCDKTHTCPPCPAPPVAGPSVFLFPPKPKDTLMISRTPEVTCVVVDVSHEDPEVQFNWYVDGVEVHNAKTKPREEQFNSTFRVVSVLTVVHQDWLNGKEYKCKVSNKGLPAPIEKTISKTKGQPREPQVCTLPPSRDELTKNQVSLSCAVKGFYPSDIAVEWESNGQPENNYKTTPPVLDSDGSFFLVSKLTVDKSRWQQGNVFSCSVMHEALHNRFTQKSLSLSPGK light: DIQMTQSPSSLSASVGDRVTITCKASQNVGTNVAWYQQKPGKAPKLLIYSASYRYSGVPSRFSGSGSGTDFTFTISSLQPEDIATYYCHQYYTYPLFTFGQGTKVEIKRTVAAPSVFIFPPSDEQLKSGTASVVCLLNNFYPREAKVQWKVDNALQSGNSQESVTEQDSKDSTYSLSSTLTLSKADYEKHKVYACEVTHQGLSSPVTKSFNRGEC | 36.3 nM | 638 nM
CEA-M3-DG2 (bispecific antibody, structure 3; CEA x CD3; CH2 DG2CH2) chain 1: QVQLVQSGSELKKPGASVKVSCKASGYTFTVFGMNWVRQAPGQGLEWMGWINTKTGEATYVEEFKGRFVFSLDTSVSTAYLQISSLKADDTAVYYCARWDFYDYVEAMDYWGQGTTVTVSSASTKGPSVFPLAPSSKSTSGGTAALGCLVKDYFPEPVTVSWNSGALTSGVHTFPAVLQSSGLYSLSSVVTVPSSSLGTQTYICNVNHKPSNTKVDKKVEPKSCGGGGSGGGGSQVQLVESGGGVVQPGRSLRLSCAASGFTFSTYAMNWVRQAPGKGLEWVARIRSKYNNYATYYADSVKDRFTISRDDSKNTLYLQMNSLRAEDTAVYYCARHGNFGNSYVSWFAYWGQGTLVTVSSASVAAPSVFIFPPSDEQLKSGTASVVCLLNNFYPREAKVQWKVDNALQSGNSQESVTEQDSKDSTYSLSSTLTLSKADYEKHKVYACEVTHQGLSSPVTKSFNRGECDKTHTCPPCPAPPVAGPSVFLFPPKPKDTLMISRTPEVTCVVVAVSHEDPEVQFNWYVDGVEVHNAKTKPREEQFNSTFRVVSVLTVVHQDWLNGKEYKCKVSNKGLPAPIEKTISKTKGQPREPQVYTLPPCRDELTKNQVSLWCLVKGFYPSDIAVEWESNGQPENNYKTTPPVLDSDGSFFLYSKLTVDKSRWQQGNVFSCSVMHEALHNHYTQKSLSLSPGK chain 2: QTVVTQEPSLTVSPGGTVTLTCRSSTGAVTTSNYANWVQQKPGQAPRGLIGGTNKRAPGVPARFSGSLLGGKAALTLSGVQPEDEAEYYCALWYSNLWVFGGGTKVEIKSSASTKGPSVFPLAPSSKSTSGGTAALGCLVKDYFPEPVTVSWNSGALTSGVHTFPAVLQSSGLYSLSSVVTVPSSSLGTQTYICNVNHKPSNTKVDKKVEPKSC heavy: QVQLVQSGSELKKPGASVKVSCKASGYTFTVFGMNWVRQAPGQGLEWMGWINTKTGEATYVEEFKGRFVFSLDTSVSTAYLQISSLKADDTAVYYCARWDFYDYVEAMDYWGQGTTVTVSSASTKGPSVFPLAPSSKSTSGGTAALGCLVKDYFPEPVTVSWNSGALTSGVHTFPAVLQSSGLYSLSSVVTVPSSSLGTQTYICNVNHKPSNTKVDKKVEPKSCDKTHTCPPCPAPPVAGPSVFLFPPKPKDTLMISRTPEVTCVVVAVSHEDPEVQFNWYVDGVEVHNAKTKPREEQFNSTFRVVSVLTVVHQDWLNGKEYKCKVSNKGLPAPIEKTISKTKGQPREPQVCTLPPSRDELTKNQVSLSCAVKGFYPSDIAVEWESNGQPENNYKTTPPVLDSDGSFFLVSKLTVDKSRWQQGNVFSCSVMHEALHNRFTQKSLSLSPGK light: DIQMTQSPSSLSASVGDRVTITCKASQNVGTNVAWYQQKPGKAPKLLIYSASYRYSGVPSRFSGSGSGTDFTFTISSLQPEDIATYYCHQYYTYPLFTFGQGTKVEIKRTVAAPSVFIFPPSDEQLKSGTASVVCLLNNFYPREAKVQWKVDNALQSGNSQESVTEQDSKDSTYSLSSTLTLSKADYEKHKVYACEVTHQGLSSPVTKSFNRGEC | 31.9 nM | 609 nM
CEA-M3-AG2 (bispecific antibody, structure 3; CEA x CD3; CH2 AG2CH2) chain 1: QVQLVQSGSELKKPGASVKVSCKASGYTFTVFGMNWVRQAPGQGLEWMGWINTKTGEATYVEEFKGRFVFSLDTSVSTAYLQISSLKADDTAVYYCARWDFYDYVEAMDYWGQGTTVTVSSASTKGPSVFPLAPSSKSTSGGTAALGCLVKDYFPEPVTVSWNSGALTSGVHTFPAVLQSSGLYSLSSVVTVPSSSLGTQTYICNVNHKPSNTKVDKKVEPKSCGGGGSGGGGSQVQLVESGGGVVQPGRSLRLSCAASGFTFSTYAMNWVRQAPGKGLEWVARIRSKYNNYATYYADSVKDRFTISRDDSKNTLYLQMNSLRAEDTAVYYCARHGNFGNSYVSWFAYWGQGTLVTVSSASVAAPSVFIFPPSDEQLKSGTASVVCLLNNFYPREAKVQWKVDNALQSGNSQESVTEQDSKDSTYSLSSTLTLSKADYEKHKVYACEVTHQGLSSPVTKSFNRGECDKTHTCPPAPAPPVAGPSVFLFPPKPKDTLMISRTPEVTCVVVDVSHEDPEVQFNWYVDGVEVHNAKTKPREEQFNSTFRVVSVLTVVHQDWLNGKEYKCKVSNKGLPAPIEKTISKTKGQPREPQVYTLPPCRDELTKNQVSLWCLVKGFYPSDIAVEWESNGQPENNYKTTPPVLDSDGSFFLYSKLTVDKSRWQQGNVFSCSVMHEALHNHYTQKSLSLSPGK chain 2: QTVVTQEPSLTVSPGGTVTLTCRSSTGAVTTSNYANWVQQKPGQAPRGLIGGTNKRAPGVPARFSGSLLGGKAALTLSGVQPEDEAEYYCALWYSNLWVFGGGTKVEIKSSASTKGPSVFPLAPSSKSTSGGTAALGCLVKDYFPEPVTVSWNSGALTSGVHTFPAVLQSSGLYSLSSVVTVPSSSLGTQTYICNVNHKPSNTKVDKKVEPKSC heavy: QVQLVQSGSELKKPGASVKVSCKASGYTFTVFGMNWVRQAPGQGLEWMGWINTKTGEATYVEEFKGRFVFSLDTSVSTAYLQISSLKADDTAVYYCARWDFYDYVEAMDYWGQGTTVTVSSASTKGPSVFPLAPSSKSTSGGTAALGCLVKDYFPEPVTVSWNSGALTSGVHTFPAVLQSSGLYSLSSVVTVPSSSLGTQTYICNVNHKPSNTKVDKKVEPKSCDKTHTCPPAPAPPVAGPSVFLFPPKPKDTLMISRTPEVTCVVVDVSHEDPEVQFNWYVDGVEVHNAKTKPREEQFNSTFRVVSVLTVVHQDWLNGKEYKCKVSNKGLPAPIEKTISKTKGQPREPQVCTLPPSRDELTKNQVSLSCAVKGFYPSDIAVEWESNGQPENNYKTTPPVLDSDGSFFLVSKLTVDKSRWQQGNVFSCSVMHEALHNRFTQKSLSLSPGK light: DIQMTQSPSSLSASVGDRVTITCKASQNVGTNVAWYQQKPGKAPKLLIYSASYRYSGVPSRFSGSGSGTDFTFTISSLQPEDIATYYCHQYYTYPLFTFGQGTKVEIKRTVAAPSVFIFPPSDEQLKSGTASVVCLLNNFYPREAKVQWKVDNALQSGNSQESVTEQDSKDSTYSLSSTLTLSKADYEKHKVYACEVTHQGLSSPVTKSFNRGEC | 38.1 nM | 602 nM
